Results on 6 substances are retold here after patent publication US20060024786A1, “WASP and N-WASP constructs and methods of expressing such constructs” (Cytokinetics, Inc., priority 2004, published 2006).

In series [1] the target is T1, Arp2/3 complex.
T1 construct: prepared from an Arp2/3 source such as human platelets; from tissue; host or cells: cell extract, e.g. human platelets
The series is described as follows: Arp2/3-mediated actin polymerization stimulated by WASP/N-WASP proteins. Format: biochemical, human. The protocol:
(§1) Samples containing candidate agents (individually or as mixtures) are placed into wells on a multi-well plate. Mix 1 is added to each of the wells and mixed with the candidate agent. A sample of Mix 2 is then introduced into each well and the resulting mixture thoroughly mixed. Typically, Mix 1 and Mix 2 are mixed in 1:1 ratio (e.g., 50 μl each of Mix 1 and Mix 2).
(§2) Actin polymerization is measured as a function of time by exciting pyrene at 365 nm and by detecting an increase in fluorescence emission at 407 nm. The change in fluorescence over time is utilized to determine a fluorescence parameter (e.g., maximal velocity, time to half maximal fluorescence intensity or area under the curve of a plot of fluorescence versus time).
In a second set of experiments, the ability of various truncated forms of WASP were compared to the activity of the full-length protein. The polymerization assays were conducted in the presence of 500 nM Cdc42, 2.5 nm purified Arp2/3 complex and 3.5 μM actin. FL-WASP, 105 WASP and the VCA (see Example 7) domain were tested. The results of these trials were plotted to obtain EC50 values. The results are provided in FIG. 6 and in the chart below.

Series [2] in a line: Solubility of purified full-length protein. Format: physicochemical. The following applies: expressed in 293 cells, TAP-tag purification.
Series [3] deals with T2, full length human WASP (Homo sapiens, UniProt P42768).
T2 construct: ProtA (part of TAP tag, behind the tev site) (C, cleaved yes); made in house; host or cells: human 293 cells (Freestyle 293 expression system)
T2 sequence (P42768 whole entry, added parts left off): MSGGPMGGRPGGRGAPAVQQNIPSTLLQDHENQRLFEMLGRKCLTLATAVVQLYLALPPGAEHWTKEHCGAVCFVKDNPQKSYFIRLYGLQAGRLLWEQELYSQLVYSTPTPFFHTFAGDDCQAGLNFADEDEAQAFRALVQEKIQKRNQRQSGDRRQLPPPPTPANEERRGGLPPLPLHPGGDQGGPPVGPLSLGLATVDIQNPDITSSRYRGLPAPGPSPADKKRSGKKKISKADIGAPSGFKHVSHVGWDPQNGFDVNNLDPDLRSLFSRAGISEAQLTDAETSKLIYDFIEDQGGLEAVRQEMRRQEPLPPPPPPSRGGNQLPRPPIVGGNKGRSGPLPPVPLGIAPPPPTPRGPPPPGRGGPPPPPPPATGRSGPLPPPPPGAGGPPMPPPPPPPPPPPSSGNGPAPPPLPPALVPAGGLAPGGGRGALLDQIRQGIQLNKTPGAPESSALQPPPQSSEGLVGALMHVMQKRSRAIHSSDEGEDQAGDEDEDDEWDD
Kind of series: Pyrene-actin polymerization assay: activation of full length WASP by upstream regulators. It is filed as biochemical. The following applies: for activation of FL WASP: Arp2/3 complex 4.0 nM, actin 3.5 μM. The protocol: as §1, §2
Full length WASP was prepared as described in Example 1. This protein was then used as a substitute GST-105WASP in methods that were otherwise identical to the methods described in Example 7.
(§3) Full length human WASP and N-WASP were TAP-tagged (Rigaut, et al. (1999) Nat. Biotechnology 17:1030, which is incorporated herein by reference in its entirety for all purposes) at the C-terminus (see, also Examples 1 and 2). The recombinant WASP and N-WASP were expressed in human 293 cells and then purified using a TAP-tag protocol as described in Example 5.
The Arp2/3 complex in these experiments was 4.0 nM and the actin concentration 3.5 μM.
The effect of PIP2on the ability of upstream regulators to regulate FL WASP was evaluated in a fifth set of experiments. The results are depicted in graphical format in FIG. 9.

The target in series [4] is T3, full length human N-WASP (Homo sapiens, UniProt O00401).
T3 construct: ProtA (part of TAP tag, behind the tev site) (C, cleaved yes); made in house; host or cells: human 293 cells; cDNA amplified from HeLa total RNA
T3 sequence (O00401 with tags, fused parts or gaps Y76H/A201G/F223S/S242L/D248E/S252L/N296S/A333E): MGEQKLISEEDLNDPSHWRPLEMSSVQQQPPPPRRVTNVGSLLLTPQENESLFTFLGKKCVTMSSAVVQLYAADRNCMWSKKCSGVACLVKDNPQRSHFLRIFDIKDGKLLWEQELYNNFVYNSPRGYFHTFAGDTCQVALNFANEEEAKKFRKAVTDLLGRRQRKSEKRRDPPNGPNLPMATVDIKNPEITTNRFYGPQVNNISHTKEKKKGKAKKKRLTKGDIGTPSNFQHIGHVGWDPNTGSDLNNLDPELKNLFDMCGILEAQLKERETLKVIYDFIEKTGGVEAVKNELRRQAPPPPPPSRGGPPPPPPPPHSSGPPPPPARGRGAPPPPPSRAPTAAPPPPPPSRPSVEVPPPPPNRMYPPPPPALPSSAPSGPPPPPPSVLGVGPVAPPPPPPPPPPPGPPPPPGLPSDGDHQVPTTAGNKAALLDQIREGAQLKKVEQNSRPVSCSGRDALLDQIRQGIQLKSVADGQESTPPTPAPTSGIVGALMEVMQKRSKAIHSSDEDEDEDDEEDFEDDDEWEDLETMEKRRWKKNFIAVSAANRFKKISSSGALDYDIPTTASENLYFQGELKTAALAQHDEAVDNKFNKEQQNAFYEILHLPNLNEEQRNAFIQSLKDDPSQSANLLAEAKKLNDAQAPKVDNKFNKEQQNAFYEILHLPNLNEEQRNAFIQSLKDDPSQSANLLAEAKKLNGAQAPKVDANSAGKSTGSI
Kind of series: Pyrene-actin polymerization assay: activation of full length N-WASP by upstream regulators. It is filed as biochemical. The following applies: for activation of FL N-WASP: Arp2/3 complex 4.0 nM, actin 3.5 μM; for Barbed ends: total concentration of Arp2/3 complex in the assay 4.2 nM. The protocol:
as §1, §2
Full length N-WASP was prepared as described in Example 2. This protein was then used as a substitute GST-105 WASP in methods that were otherwise identical to the methods described in Example 7.
as §3
Arp2/3 and actin concentrations were as described for the third experiment.
Another set of experiments similar to the fifth set were conducted using FL N-WASP.

Series [5] deals with T2, full length human WASP. The series is described as follows: Pyrene-actin polymerization assay: activation of full length WASP by upstream regulators. It is filed as biochemical. The following applies: total concentration of Arp2/3 complex in the assay 4.2 nM.
Where [6] appears, read: 500 nM Cdc42, 2.5 nm Arp2/3 complex, 3.5 μM actin, from EC50 values.

“Also recorded” adds a separate entry of the source.

Take “FL-WASP: full-length Wiskott-Aldrich syndrome protein, SEQ ID NO:2; expressed TAP-tagged in human 293 cells”: in series [1] (setting [6]), the “activity relative to 105 WASP” value is reported as “approximately 20 times” and the “potency relative to the VCA/WA domain” value was “more than 70 times”. For the same substance, the “stimulation of actin polymerization by the protein by itself” value in series [1] (without upstream regulators, FIG. 5) is given as “only weakly stimulate actin polymerization”. Besides, the “solubility of purified protein” value in series [2] is given as “completely soluble”.
For the substance “Nck2: upstream regulator; GST-tagged NCK2, SEQ ID NO:40”, the “dose dependence of barbed end concentration / effect at higher concentrations” value is on record as “bell shaped dependence; also recorded: inhibited” in series [3] (FL WASP, FIG. 7) and “bell shaped dose dependence; also recorded: inhibited” in series [4] (FL N-WASP, FIG. 8). The “Barbed ends % of max.” value in series [3] (WASP, after subtracting baseline (WASP without activators)) was determined as 50%; in series [4] (N-WASP, after subtracting baseline (without activators)) it was 78%. Also, in series [4] (FIG. 8), the “activation of FL N-WASP” value is “only activators tested that can stimulate production of maximal concentration of barbed ends”. Moreover, the results for the “Barbed ends” value in series [4] (N-WASP) and in series [5] were 3.5 nM and 2.6 nM, respectively. For the same substance, in series [4] (Rac1 versus Cdc42 in the absence of PIP2 vesicles, Nck2 on N-WASP versus WASP, FIG. 8), the “comparison as N-WASP activator” value is “significantly better activator of N-WASP than WASP”.
As for “RhoA: GTPase; GST-tagged RhoA GTP, SEQ ID NO:30”, the “activation of FL WASP” value in series [3] (FIG. 7) is on record as “could not activate”. For the same substance, the “activation of FL N-WASP” value in series [4] (FIG. 8) was “could not activate”.
For the substance “RhoC: GTPase; GST-tagged RhoC GTP with G14 mutated to V, SEQ ID NO:28”, in series [3] (FIG. 7), the “activation of FL WASP” value is “could not activate”. Also, in series [4] (FIG. 8), the “activation of FL N-WASP” value is recorded as “could not activate”.
Consider “Cdc42: Rho-family GTPase, upstream regulator; GST-tagged Cdc42 GTP with G12 mutated to V, SEQ ID NO:26”, for which the “activation of FL WASP” value in series [3] (FIG. 7) is given as “can fully activate FL WASP; also recorded: more effective on WASP-stimulated actin nucleation by Arp2/3 complex than on N-WASP-stimulated actin nucleation”. Besides, the “acceleration of actin polymerization by activator” value in series [3] (FL-WASP plus activator versus FL-WASP alone, FIG. 5) was found to be 13 fold; in series [4] (N-WASP plus activator versus N-WASP alone, FIG. 5), 13 fold. Also, the results for the “Barbed ends” value in series [4] (N-WASP) and in series [5] were 1.3 nM and 3.8 nM, respectively.
As for “phosphatidylinositol-4,5-bisphosphate [PIP2, reference compound]”, the “effect of PIP2 on FL WASP” value in series [3] (in the absence of small GTPases or Nck, FIG. 9) is “minimal, if any, effect”.
